The results in this text go back to article PMC7939455.

Read-outs that look alike come from different tables or passages of the source.

The target in assay [1] is Arg838(g- r+):Arg838(g+ r-) RetGC1 dimer (human) (UniProt Q02846).
Assay [2] deals with Ser838(g- r+):Arg838(g+ r-) RetGC1 heterodimer (human) (UniProt Q02846).
Assay [3] has as its target Ser838(g- r+):Ser838(g+ r-) RetGC1 dimer (human) (UniProt Q02846).
For assay [4], the target named is mOrange-tagged R666W RetGC1 (human) (UniProt Q02846). The assay is described as follows: co-localisation of fluorescent fusions in living cells (confocal microscopy, PCC); mOrange-RetGC1 co-expressed with GCAP1-GFP or RD3-GFP in HEK293 cells (GFP plasmid to RetGC1 plasmid ~1/100 molar ratio); confocal images 24-30 h after transfection; PCC of whole-cell images; the GFP proteins are diffuse without RetGC1 and go to the membrane cyclase when they bind; PCC < 0.6 indicates lack of co-localization.

Assay [5] deals with R838S mOrange-RetGC1 (human) (UniProt Q02846). The description is as above.
Assay [6] concerns the target mOrange-tagged WT human RetGC1 (human) (UniProt Q02846). The description is as above.
Assay [7] concerns the target WT human RetGC1 (human) (UniProt Q02846).
The target in assay [8] is R666W RetGC1 (human) (UniProt Q02846).
The target in assay [9] is WT human RetGC1 (human) (UniProt Q02846). This is another data set of the same source.
Assay [10] addresses mOrange-tagged R666W RetGC1 (human) (UniProt Q02846). The assay is described as follows: co-localisation of fluorescent fusions in living cells (confocal microscopy, PCC); mOrange-RetGC1 co-expressed with GCAP1-GFP or RD3-GFP in HEK293 cells (GFP plasmid to RetGC1 plasmid ~1/100 molar ratio); confocal images 24-30 h after transfection; PCC of whole-cell images; the GFP proteins are diffuse without RetGC1 and go to the membrane cyclase when they bind; PCC < 0.6 indicates lack of co-localization. This is another data set of the same source.

Assay [11] concerns the target mOrange-tagged G982VfsX39 RetGC1 (human) (UniProt Q02846). The assay is described as above.
Assay [12] addresses R838S mOrange-RetGC1 (human) (UniProt Q02846). The description is as above. This is another data set of the same source.
The target of assay [13] is mOrange-tagged L911F RetGC1 (human) (UniProt Q02846). The assay is described as above.
The target of assay [14] is mOrange-tagged WT human RetGC1 (human) (UniProt Q02846). The assay is described as above. The source holds these as a separate data set.
In assay [15] the target is mOrange-tagged R761W RetGC1 (human) (UniProt Q02846). Described as above.

Take “Recombinant human RD3 (from UniProt Q7Z3Z2 1-195) (natural protein)”: the values for the [RD3]1/2: RD3 concentration causing 50% inhibition of RetGC1 activity preactivated by 1.5 μM GCAP1 in 10 mM Mg2+ and 2 mM EGTA; pair acted on: GCAP1 with the cyclase dimer in assay [1], in [2] and in assay [3] were 2.3 nM, 42 nM and 23 nM, respectively.

With “RD3-GFP (from UniProt Q7Z3Z2 1-195) (natural protein)”, the PCC (Pearson's correlation coefficient of co-localization) amounted to 0.9 in assay [4], 0.91 in assay [5] and 0.91 in assay [6].

B1: Human GCAP2, N-myristoylated (natural protein)
chain: MGQEFSWEEAEAAGEIDVAELQEWYKKFVMECPSGTLFMHEFKRFFKVTDDEEASQYVEGMFRAFDKNGDNTIDFLEYVAALNLVLRGTLEHKLKWTFKIYDKDGNGCIDRLELLNIVEGIYQLKKACRRELQTEQGQLLTPEEVVDRIFLLVDENGDGQLSLNEFVEGARRDKWVMKMLQMDMNPSSWLAQQRRKSAMF
modifications: N-myristoylated
In the case of B1, the [GCAP]1/2: half-saturating concentration of Mg2+ GCAP2 for activation of guanylyl cyclase activity in HEK293 membranes (10 mM Mg2+, 2 mM EGTA) in [7] is 19 µM.

B2: Human GCAP3, N-myristoylated (natural protein)
chain: MGNGKSIAGDQKAVPTQETHVWYRTFMMEYPSGLQTLHEFKTLLGLQGLNQKANKHIDQVYNTFDTNKDGFVDFLEFIAAVNLIMQEKMEQKLKWYFKLYDADGNGSIDKNELLDMFMAVQALNGQQTLSPEEFINLVFHKIDINNDGELTLEEFINGMAKDQDLLEIVYKSFDFSNVLRVICNGKQPDMETDSSKSPDKAGLGKVKMK
modifications: N-myristoylated
In assay [7], B2 had a [GCAP]1/2: half-saturating concentration of Mg2+ GCAP3 for activation of guanylyl cyclase activity in HEK293 membranes (10 mM Mg2+, 2 mM EGTA) of 5.3 µM.

B3: Human GCAP1 (E6S), N-myristoylated (natural protein)
chain: MGNVMSGKSVEELSSTECHQWYKKFMTECPSGQLTLYEFRQFFGLKNLSPSASQYVEQMFETFDFNKDGYIDFMEYVAALSLVLKGKVEQKLRWYFKLYDVDGNGCIDRDELLTIIQAIRAINPCSDTTMTAEEFTDTVFSKIDVNGDGELSLEEFIEGVQKDQMLLDTLTRSLDLTRIVRRLQNGEQDEEGADEAAEAAG
modifications: N-myristoylated
Take B3: the [GCAP]1/2: half-saturating concentration of Mg2+ GCAP1 for activation of guanylyl cyclase activity in HEK293 membranes (10 mM Mg2+, 2 mM EGTA) in assay [7] came to 1.13 µM. The [GCAP1]1/2: half-saturating concentration of Mg2+ GCAP1 for activation of guanylyl cyclase activity in HEK293 membranes (10 mM Mg2+, 2 mM EGTA) in assay [8] is 7.25 µM. The [GCAP]1/2: half-saturating concentration of GCAP1 for RetGC1 activation in 10 mM Mg2+ and 2 mM EGTA (Fig. 10C) in [1] was determined as 1.65 µM; in assay [2], 0.22 µM; in assay [9], 1.1 µM; in [3], 0.4 µM.

B4: GCAP1-GFP (natural protein)
chain: MGNIMDGKSVEELSSTECHQWYKKFMTECPSGQLTLYEFRQFFGLKNLSPWASQYVEQMFETFDFNKDGYIDFMEYVAALSLVLKGKVEQKLRWYFKLYDVDGNGCIDRDELLTIIRAIRAINPCSDSTMTAEEFTDTVFSKIDVNGDGELSLEEFMEGVQKDQMLLDTLTRSLDLTRIVRRLQNGEQDEEGASGRETEAAEADG
Turning to B4, the PCC (Pearson's correlation coefficient of co-localization) in assay [10] is 0.64; in [11], 0.87; in assay [12], 0.89; in assay [13] it was 0.89; in assay [14], 0.9; in assay [15] it was 0.64.
